From paper PMC10547376

Biological target: actively translating polysomes (cytosolic ribosomes) (human (endogenous in HeLa, HT29))
Experiment: co-sedimentation

percent of total TRAP1 in the polysomal fractions: > 0.7%
B1: TRAP1 (endogenous) (natural protein)
chain: STQTAEDKEEPLHSIISSTESVQGSTSKHEFQAETKKLLDIVARSLYSEKEVFIRELISNASDALEKLRHKLVSDGQALPEMEIHLQTNAEKGTITIQDTGIGMTQEELVSNLGTIARSGSKAFLDALQNQAEASSKIIGQFGVGFYSAFMVADRVEVYSRSAAPGSLGYQWLSDGSGVFEIAEASGVRTGTKIIIHLKSDCKEFSSEARVRDVVTKYSNFVSFPLYLNGRRMNTLQAIWMMDPKDVREWQHEEFYRYVAQAHDKPRYTLHYKTDAPLNIRSIFYVPDMKPSMFDVSRELGSSVALYSRKVLIQTKATDILPKWLRFIRGVVDSEDIPLNLSRELLQESALIRKLRDVLQQRLIKFFIDQSKKDAEKYAKFFEDYGLFMREGIVTATEQEVKEDIAKLLRYESSALPSGQLTSLSEYASRMRAGTRNIYYLCAPNRHLAEHSPYYEAMKKKDTEVLFCFEQFDELTLLHLREFDKKKLISVETDIVVDHYKEEKFEDRSPAAECLSEKETEELMAWMRNVLGSRVTNVKVTLRLDTHPAMVTVLEMGAARHFLRMQQLAKTQEERAQLLQPTLEINPRHALIKKLNQLRASEPGLAQLLVDQIYENAMIAAGLVDDPRAMVGRLNELLVKALERH
